The results in this text go back to publication PMC6602525 (Cell, 2019).

This test has as its target PfRH5FL (full-length PfRH5 protein comprising amino acids E26–Q526) (P. falciparum (3D7 clone), UniProt Q8IFM5 26-526, T40A | T216A | T286A | T299A). Kind of test: SPR. The conditions noted are these: both partners purified.

B1: PfP113Nt (domain or fragment)
chain: YVHNDVIKFGEENSLKCSQGNLYVLHCEVQCLNGNNEIIHKRCNDDIEKKCNGNNKCIYFFEYELRKKTQSFRNKNSIEISECVESEQNEVKTSTTCLLSNSFILDEAFIQYFFFIKNKNEEPVICKDGNINIKSALLHSPFCEIKLKDISEYIRKKCDNNKECLIDPLDVQKNLLNEEDPCYINNSYVSVNVVCNK
Regarding B1, the binding result is reported as “binds”.
